# Test system: CC(C)(COP(=O)(O)OP(=O)(O)OC[C@H]1O[C@@H](n2cnc3c(N)ncnc32)[C@H](O)[C@@H]1OP(=O)(O)O)[C@@H](O)C(=O)NCCC(=O)NCCSC(=O)CCC(=O)O
# Assay: purified protein
# Conditions: PLP
substance,measurement,value
5-aminolevulinate synthase (cALAS) (Caulobacter vibrioides CB15),Km,2.42 ± 0.32 µM

# — paper PMC6154995, “Heme-dependent Inactivation of 5-Aminolevulinate Synthase from Caulobacter crescentus” (Scientific Reports, 2018)
